Where a chain is given by its changes, count along the chain named.
Assays:
A647-SsoSSB A114C [1] = target: T1, A647-SsoSSB A114C (Sulfolobus solfataricus, UniProt Q97W73 1-148, A114C); test: single-molecule FRET/PIFE/quenching kinetics; S4 pathway, two monomers in one step; kon 0.006 nM-1 s-1, koff 0.33 s-1; 50 mM Tris-HCl pH 7.6, 10 mM KCl, 5% glycerol, 0.1 mg/ml BSA, 5-50 nM DNA, 20 C (PIFE also 65 C); conditions: protein: recombinant; chain copies: 2; label: 5' biotin, 3' Cy3; single strand
T1 sequence: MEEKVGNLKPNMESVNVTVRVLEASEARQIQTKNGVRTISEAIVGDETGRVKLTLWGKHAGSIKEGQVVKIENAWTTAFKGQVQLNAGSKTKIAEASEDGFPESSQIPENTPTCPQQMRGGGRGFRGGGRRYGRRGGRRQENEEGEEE

A647-SsoSSB A114C [2] = target: T1, A647-SsoSSB A114C; test: single-molecule FRET/PIFE/quenching kinetics; second monomer; kon 0.16 nM-1 s-1, koff 0.31 s-1; 10 mM KCl; 50 mM Tris-HCl pH 7.6, 10 mM KCl, 5% glycerol, 0.1 mg/ml BSA, 5-50 nM DNA, 20 C (PIFE also 65 C); conditions: protein: recombinant; chain copies: 2; label: 5' biotin, 3' Cy3; single strand
A647-SsoSSB A114C [3] = target: T1, A647-SsoSSB A114C; test: single-molecule FRET kinetics; first monomer; kon 0.032 nM-1 s-1, koff ~1.75 s-1; 10 mM KCl; 50 mM Tris-HCl pH 7.6, 10 mM KCl, 5% glycerol, 0.1 mg/ml BSA, 5-50 nM DNA, 20 C (PIFE also 65 C); conditions: protein: recombinant; chain copies: 2; label: 5' biotin, 3' Cy3; single strand
SsoSSB wild-type [4] = target: T2, SsoSSB wild-type (Sulfolobus solfataricus (Methods print …, UniProt Q97W73 1-148)); test: tryptophan fluorescence quenching; Hill model; 50 mM Tris-HCl pH 7.6, 10 mM KCl, 5% glycerol, 0.1 mg/ml BSA, 5-50 nM DNA, 20 C (PIFE also 65 C); conditions: protein: recombinant; chain copies: 2; single strand
T2 sequence: T1 sequence with C114A

SsoSSB wild-type [5] = target: T2, SsoSSB wild-type; test: fluorescence titration (PIFE); 65 C; Hill 1.4 ± 0.2; 50 mM Tris-HCl pH 7.6, 10 mM KCl, 5% glycerol, 0.1 mg/ml BSA, 5-50 nM DNA, 20 C (PIFE also 65 C); conditions: protein: recombinant; chain copies: 2; label: 3' Cy3 (amino); single strand
A647-SsoSSB A114C [6] = target: T1, A647-SsoSSB A114C; test: ensemble FRET; Hill model, 1.8 ± 0.2; 50 mM Tris-HCl pH 7.6, 10 mM KCl, 5% glycerol, 0.1 mg/ml BSA, 5-50 nM DNA, 20 C (PIFE also 65 C); conditions: protein: recombinant; chain copies: 2; label: 3' Cy3 (amino); single strand
A647-SsoSSB A114C [7] = target: T1, A647-SsoSSB A114C; test: ensemble FRET; two-site model, second monomer; 50 mM Tris-HCl pH 7.6, 10 mM KCl, 5% glycerol, 0.1 mg/ml BSA, 5-50 nM DNA, 20 C (PIFE also 65 C); conditions: protein: recombinant; chain copies: 2; label: 3' Cy3 (amino); single strand
SsoSSB wild-type [8] = target: T2, SsoSSB wild-type; test: fluorescence titration (PIFE); 20 C, 10 mM KCl; Hill 1.8 ± 0.2; 50 mM Tris-HCl pH 7.6, 10 mM KCl, 5% glycerol, 0.1 mg/ml BSA, 5-50 nM DNA, 20 C (PIFE also 65 C); conditions: protein: recombinant; chain copies: 2; label: 3' Cy3 (amino); single strand
A647-SsoSSB A114C [9] = target: T1, A647-SsoSSB A114C; test: ensemble FRET; two-site model, first monomer; 50 mM Tris-HCl pH 7.6, 10 mM KCl, 5% glycerol, 0.1 mg/ml BSA, 5-50 nM DNA, 20 C (PIFE also 65 C); conditions: protein: recombinant; chain copies: 2; label: 3' Cy3 (amino); single strand
A647-SsoSSB A114C [10] = target: T1, A647-SsoSSB A114C; test: fluorescence self-quenching titration; 10 mM KCl; Hill 1.4 ± 0.2 in text; Fig 2 legend gives 20 ± 1 nM, Hill 1.3; 50 mM Tris-HCl pH 7.6, 10 mM KCl, 5% glycerol, 0.1 mg/ml BSA, 5-50 nM DNA, 20 C (PIFE also 65 C); conditions: protein: recombinant; chain copies: 2; single strand

Binder: CCCCCCCCCCCC (ssDNA) [BidC12Cy3]
- Kd (A647-SsoSSB A114C [1]): ~57 nM
- Kd (A647-SsoSSB A114C [2]): ~2 nM
- Kd (A647-SsoSSB A114C [3]): 54 ± 2 nM

Binder: TTTTTT (ssDNA) [dT6]
- Kd (SsoSSB wild-type [4]): 143 ± 95 nM

Binder: CCCCCCCCCCCC (ssDNA) [dC12Cy3]
- Kd (SsoSSB wild-type [5]): 15 ± 1 nM
- Kd (A647-SsoSSB A114C [6]): 24 ± 2 nM
- Kd (A647-SsoSSB A114C [7]): 2.8 ± 1 nM
- Kd (SsoSSB wild-type [8]): 9 ± 1 nM
- Kd (A647-SsoSSB A114C [9]): 37 ± 4 nM

Binder: CCCCCCCCCCCC (ssDNA) [dC12]
- Kd (A647-SsoSSB A114C [10]): 22 ± 1 nM

Reference: PMC4678828, “Binding dynamics of a monomeric SSB protein to DNA: a single-molecule multi-process approach”
